The values that follow come from a protein production outcome set (Wang et al. 2014).

A short description of the data set: label from the status in PepcDB records.
Regarding “GYDHKKMGITAKGAWVGVQRHFRERDINVQQDSISVIGIGDMAGDVFGNGLLMSDKLQLVAAFNHLHIFIDPNPEPASSFAERERLFNLPRSSWTDYDTSIMSAGGGIFPRSLKSIAITEQMKARFDIKADKLTPTELLHALLKAPVDLLWNGGIGTYVKSSEESHADVGDKANDALRVDGNELRCKVVGEGGNLGMTQLGRVEFGLNGGATNTDFIDNAGGVDCSDHEVNIKILLNEVVQAGDMTEKQRNQLLESMTDEVGHLVLGNNYKQTQALSLAARRAYERIAEYKRLMSDLEARGKLD”, the protein production result is “not failed”.
With “GYIQMPLFRLHVQVFTPEREIPLGTVCLLHGYLEHSGIYQPIIREILDQGFSVVTYDLPGHGLSDGSPANIQNFDHYQQVLMAVYQYVKNADQLPKPWLGIGQSTGGAIWMHHLLEYAEKRQDPIVDRVLLLSPLIRPAKTAWWHNSVGLGIIRRIRRQVPRHFRRNNHNPEFLRFIRLKDPLQPRMMGMDWILAMSKWMFEMEQRPACRIPVWLAQGALDQTVDWRYNIEFIRRKFRLQTLLMLEEGSHQLINERADIRAALTGLIPAFLHAR”, the protein production result was “failed”.
For “HGGHRQYAKEILSTSSAAMASQRSFLGLEPTIKKIPAFRAVYLRHKGYNKSIALSWQKLMAWGFEHQISSQARQIGIHHDNPSITPLAECRYIAALEVEEGFRAQGLLGVMEFPPTLCAVFEVQGRYGDVLGLIDYVYHEWLPQSGYEAKTIPAFALYQKNHFLDPLGNFQLDFCLPVGVV” the value was “failed”; for “HHIAYTEWGIFEPELPTVICVHGYTRNSRDFDELANYLSSKGRHVFCPDIAGRGDSSWFKNPRYYNFTQYVKDMTVLMARTNAHQIDWIGTSMGGIIGMILAAMPNSPINKLVLNDIGPQIPIHGLRRIAKYAGKAPDFKSLEEAKQHFKASYADFGITNEKQWDIFTKNSVEQRGPNLYVTKMDPAIKKSKSILQIISEFFRHPHKALEGIFYDINLWSIWKQIKCPVIVIHGVNSDILTSEIITQMKKTHALTEVYEVENAGHAPALLDLTVHQRIEDWLATH”, “failed”.
For “HHSVEAPQVKKRMGKFPFVKASKKESEEISKQLHNALDIELPSESTVWLRDKDVWLFPDALEPMIGELRFSRMGIKIAEAHKNGYRWQHQVATALATGAESNAIELTIEEAREWYMGRDVRPQIIPEGLKTGKGEVLVKYQGAIIGLGKWVSNRIKNGLPRELVRDKNLF” the value was “not failed”; for “HQEIKGRKTLATPAVRRLAMENNIKLSEVVGSGKDGRILKEDILNYLEKQTGAILPP”, “not failed”.
For “HRPLNPAMVAFSNDPLLNDLALNSSYSLLFAVNNMKSEKSAEQFYGKMDNQKMLDLVRASSTKIDFDPTLLPTMNSNPATYQGKRKNLVILLQESLGAQFVGSLGGLPLTPNLDELMQEGWQFTQMYATGTRSVRGIEAVTTGFPPSPSRAVVKLSKSQTGFFTIADLLKEQGYHTQFIYGGEANFDNMKTFFFGNGFDQIVEEKNYTNPGFVGSWGVSDEDLYNKADEEFERLSKGDKPFFSLVFTSSNHSPYEYPEGKIEQYDSEHMTRNNAVKYSDYALGTFFDKAKKSSYWDDTIFIVIADHDARVFGANLVPVKHFHIPALIIGKDIQPRKDDRIANNIDMPPTLLSLIGVDAKTPMIGRDLTKPLAREDERAMMQYDKNFGYLTRDNLVVLSPGEKVSTMEYDFESQTMKPLEVDESVIDRAKANALFASKAYQNNWYSSKRTN”, the protein production result is “not failed”.
“HRSDPQIAICLDCLRNNGQSGDNVVKGLMKKFIRCSTRVTVGTIKKFLSLKLKLPSSYELDVLCNGEIMGKDHTMEFIYMTRWRLRGENFRCLNCSASQVCSQDGPLYQSYPMVLQYR”: the protein production entry is “failed”.
As to “HRWITRPKFTHFDLHTLNWDLCLTQANHKSNLALEMLKMLLDSLPETVEKIQTALGQNDQATMLSTIHKLHGASCYCGVPTTQRLCQEIESALKRQTPVEDLEPEILELLDELTKVESAVKQVLSQLSAE”, the protein production entry was “not failed”.
As to “HSFVVLVIGESARKHNYALYGYQKPTTPRLSKRLADNELTLFNATSCATYTTASLECILDSSFKNNAYENLPTYLTKAGIKVFWYSANDGEKNVKVTSYLKNYELIQKCPNCEAIAPYDESLLYNLPDLLKEHSNENVLLILHLAGSHGPNYDNKVPLNFRVFKPYCSSADLSSCSKESLINAYDNTIFYNDYLLDKIISMLENAKQPALMIYLSDHGESLGEEAFYLHGIPKSIAPKEQYEIPFIVYAN”, the protein production result was “failed”.
